According to PMC6212594, “Structural insights into the π-π-π stacking mechanism and DNA-binding activity of the YEATS domain” (Nature Communications, 2018):
Where two headings read alike, the source gives them in different places. *1 amine or outer side, *2 acyl side, *3 side chain or, on linkers, in order; H or OH if unused. Where no end group is shown, it is not given here. The star is where a group is joined. Suc = O=C(CCC(=O)[*:2])[*:1]; Crotonyl(E) = C/C=C/C(=O)*; Propionyl = CCC(=O)*; Butyryl = CCCC(=O)*

Legend:
Taf14-YEATS G82A [1] = biological target: T1, Taf14-YEATS G82A (Saccharomyces cerevisiae, UniProt P35189, G82A); test: biochemical; format: binding, yeast
Method: Kd value was calculated by a nonlinear least-squares analysis in Kaleidagraph using the1 Δδ=ΔδmaxL+P+Kd-L+P+Kd^2-4PL/2P where [L] is concentration of free acetyllysine, [P] is concentration of the protein, Δδ is the observed chemical shift change, and Δδmax is the normalized chemical shift change at saturation. Normalized chemical shift changes were calculated using the equation2 Δδ=ΔδH^2+ΔδN/5^2 where Δδ is the change in chemical shift in parts per million (ppm).

AF9-YEATS Y78W [2] = biological target: T2, AF9-YEATS Y78W (Homo sapiens, UniProt P42568, Y78W); test: Tryptophan fluorescence binding, AF9-YEATS Y78W; conditions: 20 mM Tris pH 7.5, 500 mM NaCl, 2 mM BME, 25 °C, 1–2 µM protein, peptides aa 5–13, average of three separate experiments ± SD, read-out: Binding affinity Kd
T2 sequence (P42568 1-138 Y78W): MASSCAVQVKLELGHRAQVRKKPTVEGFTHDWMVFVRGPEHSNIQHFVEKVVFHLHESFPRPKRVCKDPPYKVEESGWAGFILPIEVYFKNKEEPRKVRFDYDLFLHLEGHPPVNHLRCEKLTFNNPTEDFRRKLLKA

Taf14-YEATS G82A [3] = biological target: T1, Taf14-YEATS G82A; test: biochemical
AF9-YEATS Y78W [4] = biological target: T3, AF9-YEATS Y78W (human, UniProt P42568 1-138, Y78W); test: crystal structure; AF9-YEATS (wild type or Y78W) at 6 mg/ml with two molar equivalents of peptide; sitting drop, 4 °C; conditions: both partners purified
T3 construct: AF9, human, YEATS domain, aa 1-138 with Y78W; also called Y78W mutant; source: E. coli BL21 (DE3) RIL, purified
T3 sequence (looked up): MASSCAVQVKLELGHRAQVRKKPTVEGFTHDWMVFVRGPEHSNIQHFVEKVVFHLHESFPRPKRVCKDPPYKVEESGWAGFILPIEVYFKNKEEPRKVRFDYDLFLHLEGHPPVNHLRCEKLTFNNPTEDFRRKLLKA

[5] = biological target: T4, AF9-YEATS domain (aa 1-138) (human, UniProt P42568 1-138); test: as above; conditions: both partners purified
T4 construct: AF9, human, YEATS domain, aa 1-138, in pET28b; His tag cleaved with thrombin; 15N-labelled for NMR; also called WT AF9-YEATS; source: E. coli BL21 (DE3) RIL, purified (nickel-NTA, ion exchange / size exclusion)
T4 sequence (looked up): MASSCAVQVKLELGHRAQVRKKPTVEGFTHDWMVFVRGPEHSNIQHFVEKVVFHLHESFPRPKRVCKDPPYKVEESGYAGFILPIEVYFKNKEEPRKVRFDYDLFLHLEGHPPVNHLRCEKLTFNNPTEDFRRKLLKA

Taf14 YEATS domain [6] = biological target: T5, Taf14 YEATS domain (yeast, UniProt P35189 1-137); test: NMR
T5 chain: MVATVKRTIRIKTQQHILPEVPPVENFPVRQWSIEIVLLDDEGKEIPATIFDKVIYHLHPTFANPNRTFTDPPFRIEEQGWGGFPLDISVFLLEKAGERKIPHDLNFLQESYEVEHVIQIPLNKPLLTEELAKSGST

Taf14-YEATS W81Y = Taf14-YEATS W81Y (yeast, UniProt P35189 1-137, W81Y)
AF9-YEATS Y78W/A79G = biological target: T6, AF9-YEATS Y78W/A79G (human, UniProt P42568 1-138, Y78W | A79G)
T6 sequence: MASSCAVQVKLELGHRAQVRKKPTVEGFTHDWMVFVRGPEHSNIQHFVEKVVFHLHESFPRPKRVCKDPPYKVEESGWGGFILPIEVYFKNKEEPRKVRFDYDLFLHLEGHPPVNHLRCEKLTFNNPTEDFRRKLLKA

Taf14 YEATS domain [7] = biological target: T5, Taf14 YEATS domain
[8] = biological target: T7, AF9-YEATS domain (aa 1-138) (human, UniProt P42568 1-138)
T7 chain: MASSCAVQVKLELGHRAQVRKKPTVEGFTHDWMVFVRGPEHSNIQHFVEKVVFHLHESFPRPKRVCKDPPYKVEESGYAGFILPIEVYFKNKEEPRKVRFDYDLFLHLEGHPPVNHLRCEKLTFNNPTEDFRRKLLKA

Taf14-YEATS G82A (1-137) = biological target: T8, Taf14-YEATS G82A (1-137) (yeast, UniProt P35189 1-137, G82A); test: crystal structure; Taf14-YEATS (1-137) with 5 (wild type) or 10 (G82A) molar equivalents of peptide; sitting drop, 18 °C, PEG 600, citric acid pH 6.0; conditions: both partners purified
T8 construct: Taf14, yeast, YEATS domain, aa 1-137 with G82A (construct used for crystallization); Also crystallized in the apo state; also called G82A mutant; source: E. coli BL21 (DE3) RIL, purified
T8 sequence (looked up): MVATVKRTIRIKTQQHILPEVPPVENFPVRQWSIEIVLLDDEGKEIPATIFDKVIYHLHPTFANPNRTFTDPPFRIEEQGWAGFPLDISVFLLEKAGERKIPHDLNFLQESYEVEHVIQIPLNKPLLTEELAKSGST

[9] = biological target: T4, AF9-YEATS domain (aa 1-138); test: other fluorescence titration; tryptophan fluorescence; 1-2 µM wild-type or mutated AF9 YEATS domain in 20 mM Tris pH 7.5, 500 mM NaCl, 2 mM BME, 25 °C, increasing concentrations of H3 peptide (aa 5-13); conditions: both partners purified
AF9-YEATS Y78W [10] = biological target: T9, AF9-YEATS Y78W (human, UniProt P42568 1-138, Y78W)
T9 sequence: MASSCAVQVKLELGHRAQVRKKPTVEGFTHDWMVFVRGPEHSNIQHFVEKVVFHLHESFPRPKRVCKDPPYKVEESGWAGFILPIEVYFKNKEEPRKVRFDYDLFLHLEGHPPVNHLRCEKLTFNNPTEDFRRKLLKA

AF9-YEATS Y78W [11] = biological target: T3, AF9-YEATS Y78W; test: other fluorescence titration; tryptophan fluorescence; 1-2 µM wild-type or mutated AF9 YEATS domain in 20 mM Tris pH 7.5, 500 mM NaCl, 2 mM BME, 25 °C, increasing concentrations of H3 peptide (aa 5-13); conditions: both partners purified
H3K9acyl = conditions: cited from earlier work
Excerpt: To assess how AF9-YEATS interacts with both H3K9acyl and DNA, we reconstituted H3K9acyl-containing nucleosome core particles (H3K9cr-NCPs and H3K9ac-NCP) and examined binding of AF9-YEATS to these NCPs and to unmodified NCP in EMSA.

Taf14-YEATS (1-137) = biological target: T10, Taf14-YEATS (1-137) (yeast, UniProt P35189 1-137); test: crystal structure; Taf14-YEATS (1-137) with 5 (wild type) or 10 (G82A) molar equivalents of peptide; sitting drop, 18 °C, PEG 600, citric acid pH 6.0; conditions: both partners purified
T10 construct: Taf14, yeast, YEATS domain, aa 1-137 (construct used for crystallization); GST tag probably cleaved for crystallization (surmise); also called wild-type Taf14-YEATS; source: E. coli BL21 (DE3) RIL, purified (glutathione Sepharose 4B, size exclusion)
T10 sequence (looked up): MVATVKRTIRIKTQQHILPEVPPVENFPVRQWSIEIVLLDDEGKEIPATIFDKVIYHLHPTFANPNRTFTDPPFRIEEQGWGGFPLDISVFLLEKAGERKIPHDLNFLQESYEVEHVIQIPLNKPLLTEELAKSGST

Taf14 YEATS domain [12] = biological target: T5, Taf14 YEATS domain; test: other fluorescence titration; tryptophan fluorescence; 1-2 µM wild-type or mutated Taf14 YEATS domain in PBS pH 7.4, 25 °C, increasing concentrations of H3 peptide (aa 5-13); excitation 295 or 280 nm

**Q.** Which results are given for C/C=C/C(=O)NCCCC[C@H](NC(=O)[C@H](CCCNC(=N)N)NC(=O)[C@H](C)NC(=O)[C@@H](NC(=O)[C@@H](N)CCC(N)=O)[C@@H](C)O)C(=O)N[C@@H](CO)C(=O)N[C@H](C(=O)NCC(=O)NCC(=O)O)[C@@H](C)O [H3K9cr]?
**A.** Selectivity of G82A mutant for H3K9cr (over H3K9ac) (Taf14-YEATS G82A [1]; from NMR titration data for H3K9ac, author's response in peer review file): greater than 80 -fold; Kd (AF9-YEATS Y78W [2]): 2 µM; Kd (Taf14-YEATS G82A [3]): 124 µM

**Q.** For CC(=O)NCCCC[C@H](NC(=O)[C@H](CCCNC(=N)N)NC(=O)[C@H](C)NC(=O)[C@@H](NC(=O)[C@@H](N)CCC(N)=O)[C@@H](C)O)C(=O)N[C@@H](CO)C(=O)N[C@H](C(=O)NCC(=O)NCC(=O)O)[C@@H](C)O [H3K9ac], which Kd (Taf14-YEATS G82A [1]) is on record?
**A.** > 10000 µM

B1: histone H3K9cr (5-14) peptide (peptide, UniProt P68431 6-15, looked up)
peptide: QTARK(Crotonyl(E))STGGK
notes: histone H3, residues 5-14, K9 crotonylated
**Q.** Does B1 bind (AF9-YEATS Y78W [4])?
**A.** binds

B2: histone H3K9bu (1-19) peptide (peptide, UniProt P68431 2-20, looked up)
peptide: ARTKQTARKSTGGKAPRKQ
modifications: butyryllysine at K9
notes: histone H3, residues 1-19, K9 butyrylated
**Q.** Does B2 bind [5]?
**A.** binds

**Q.** With QTARK(Suc)STGG [histone H3K9su peptide] as the molecule, how does the Kd (Taf14 YEATS domain [6]) read?
**A.** > 700 µM

**Q.** Which Kd (Taf14-YEATS W81Y) does the source give for QTARK(Crotonyl(E))STGG [histone H3K9cr peptide (limits not stated)] here?
**A.** 9.2 µM

**Q.** And the Kd (AF9-YEATS Y78W/A79G)?
**A.** 2.7 µM

B3: histone H3K9cr peptide (aa 5-13) (peptide, UniProt P68431 6-14, looked up)
peptide: QTARK(Crotonyl(E))STGG
notes: histone H3, residues 5-13, K9 crotonylated; also called H3K9cr (5-13); source: bought: Synpeptide
**Q.** For B3, which Kd (Taf14 YEATS domain [7]) is on record?
**A.** 9 µM

**Q.** And the Kd [8]?
**A.** 3.7 µM

**Q.** Does B3 bind (Taf14-YEATS G82A (1-137))?
**A.** binds

**Q.** Does B3 bind [9]?
**A.** binds

**Q.** Which Kd (AF9-YEATS Y78W/A79G) does the source give for QTARK(Ac)STGG [histone H3K9ac peptide (limits not stated)] here?
**A.** 2.6 µM

B4: histone H3K9ac peptide (aa 5-13) (peptide, UniProt P68431 6-14, looked up)
peptide: QTARK(Ac)STGG
notes: histone H3, residues 5-13, K9 acetylated; source: bought: Synpeptide
**Q.** With B4 as the molecule, how does the Kd (Taf14 YEATS domain [7]) read?
**A.** 130 µM

**Q.** What about the Kd [8] of the same molecule?
**A.** 4.3 µM

**Q.** And the Kd (AF9-YEATS Y78W [10])?
**A.** 2.3 µM

**Q.** Does B4 bind [9]?
**A.** binds

**Q.** And the Kd (AF9-YEATS Y78W [11])?
**A.** 2 µM

B5: AF9-YEATS F59A/Y78A: AF9-YEATS mutant defective in H3K9acyl binding (protein)
chain: MASSCAVQVKLELGHRAQVRKKPTVEGFTHDWMVFVRGPEHSNIQHFVEKVVFHLHESAPRPKRVCKDPPYKVEESGAAGFILPIEVYFKNKEEPRKVRFDYDLFLHLEGHPPVNHLRCEKLTFNNPTEDFRRKLLKA
modifications: left off: His tag, end not stated, cleaved
**Q.** For B5, which “H3K9acyl binding of mutant” value (H3K9acyl) is on record?
**A.** defective in H3K9acyl binding

B6: histone H3K9pr (5-13) peptide (peptide, UniProt P68431 6-14, looked up)
peptide: QTARK(Propionyl)STGG
notes: histone H3, residues 5-13, K9 propionylated; also called propionylated H3K9pr peptide
**Q.** Does B6 bind (Taf14-YEATS (1-137))?
**A.** binds

B7: histone H3K9bu peptide (aa 5-13) (peptide, UniProt P68431 6-14, looked up)
peptide: QTARK(Butyryl)STGG
notes: histone H3, residues 5-13, K9 butyrylated; also called H3K9bu (5-13); source: bought: Synpeptide
**Q.** With B7 as the molecule, how does the Kd (Taf14 YEATS domain [7]) read?
**A.** 28 µM

**Q.** What about the Kd [8] of the same molecule?
**A.** 3.9 µM

**Q.** What about the Kd (Taf14-YEATS W81Y) of the same molecule?
**A.** 40 µM

**Q.** Does B7 bind (Taf14-YEATS (1-137))?
**A.** binds

**Q.** What about the fold reduction of binding against H3K9cr (Taf14 YEATS domain [12]) of the same molecule?
**A.** 3 fold

**Q.** Does B7 bind [9]?
**A.** binds
